Target: SARS-CoV-2 S1 334-526 N343D (SARS-CoV-2, UniProt P0DTC2 334-526)
Assay: co-secretion from Pichia pastoris; biochemical and structural analysis

B1: VHH antibody Re21D01 (VHH)
VHH: QVQLVESGGALVQPGGSLRLSCVASGFTFSSFAMGWYRQAPGKECEWVATITITGGSTNYADSVKGRFTISRDNAKNTVYLQMNSLKPEDTAVYYCNPDPGCRRGQGTQVTVSS
binding result: binds

From patent US20240173398A1 (MAX PLANCK GESELLSCHAFT ZUR F RDERUNG DER WISSENSCHAFTEN E V, published 2024)
